For data set [1], the target named is nsp12 (RNA-dependent RNA polymerase);nsp7;nsp8;nsp13 helicase (SARS-CoV-2;SARS-CoV-2;SARS-CoV-2;SARS-Co …, UniProt P0DTD1;P0DTD1;P0DTD1;P0DTD1 4393-5324;3860-3942;3943-4140;5325-5925, |||). In words: EMSA. Background: Mobility shift assays separate free from complexed probe on a gel.
For data set [2], the target named is nsp12 (RNA-dependent RNA polymerase);nsp7;nsp8 (SARS-CoV-2;SARS-CoV-2;SARS-CoV-2, UniProt P0DTD1;P0DTD1;P0DTD1 4393-5324;3860-3942;3943-4140, ||). In words: EMSA.

B1: RNA scaffold (template-product, cryo-EM primer and template, Figure 1A) (dsRNA)
RNA 1: CUAUCCCCAUGUGAUUUUAAUAGCUUCUUAGGAGAAUGACGUAGCAUGCUACGCG
RNA 2: CGCGUAGCAUGCUACGUCAUUCUCCUAAGAAGCUA
Regarding B1, the binding result in data set [1] and in data set [2] was “binds” each time.

The record behind these values is publication PMC7386476.
